Data taken from publication PMC12823590.

Target: recombinant OsLIKE1-KD from E. coli (GST-OsLIKE1-KD and OsLIKE1-KD-His) (rice)
Test: native gel or EMSA

recombinant OsLIKE1-KD from E. coli (GST-OsLIKE1-KD and OsLIKE1-KD-His) (domain or fragment)
stoichiometry N: 2
